The values that follow are results of earlier work, collected in US9307769B2, “Method for increasing plant yield, and yield improving compositions” (Plant Health Care, Inc., priority 2011, dated 2016).

Where two headings read alike, the source gives them in different places.

[1] abbreviates: HR-eliciting fragments, Table 1.
Setting [2] is: building block domains for fusion proteins, Table 2.

“HrpNEa-2: HR-eliciting fragment, E. amylovora, amino acid residues 140-176 (QNDDSTSGTDSTSDSSDPMQQLLKMFSEIMQSLFGDG; UniProt Q01099 140-176, looked up, fragment)”: the pI under setting [1] is recorded as 3.17.
For the substance “(NN): building block domain, source HrpNEa40-80 (SALGLGGGNQNDTVNQLAGLLTGMMMMMSMMGGGGLMGGGL; UniProt Q01099 40-80, looked up, fragment)”, the pI under setting [2] is listed as 6.78.
Regarding “HrpNEa-1: HR-eliciting fragment, E. amylovora, amino acid residues 43-70 (GLGGGNQNDTVNQLAGLLTGMMMMMSMM; UniProt Q01099 43-70, looked up, fragment)”, the pI under setting [1] was 3.09.
“(NC): building block domain, source HrpNEa140-180 (QNDDSTSGTDSTSDSSDPMQQLLKMFSEIMQSLFGDGQDGT; UniProt Q01099 140-180, looked up, fragment)”: the pI under setting [2] is listed as 5.01.
In the case of “HrpWPss-1: HR-eliciting fragment, P. syringae, amino acid residues 52-96 (LAATMFVMAPVAHDIQQRVHEHPLELSNADKLQSSLKVVIEPLQR; UniProt Q60236 52-96, looked up, fragment)”, under setting [1], the pI is on record as 4.32.
On to “HrpNEch-2: HR-eliciting fragment, E. chrysanthemi, amino acid residues 256-295 (DGWSSPKTDDKSWAKALSKPDDDGMTGASMDKFRQAMGMI; UniProt Q47278 256-295, looked up, fragment)”, for which the pI under setting [1] is given as 4.62.
On to “HrpNEch-1: HR-eliciting fragment, E. chrysanthemi, amino acid residues 78-118 (QLGQSFGNGAQGASNLLSVPKSGGDALSKMFDKALDDLLGH; UniProt Q47278 78-118, looked up, fragment)”, for which the pI under setting [1] is 5.25.
